What was measured:
[1] = system: new blood vessels in Matrigel plugs; test: In vivo Matrigel plug assay; set-up: species or system C57/BL6 mice; settings: for inhibition of neovascularization / average number of vessels per high power field: Tumstatin-N53 5 μg/ml, T1 and T3 peptide 10 μg/ml; for average number of vessels per high power field: control 8.81±0.35; for number of blood vessels per plug: 2 or 20 μg/ml insoluble protein, 50 ng/ml VEGF, vs PBS; for number of blood vessels per plug / reduction in the number of blood vessels: 14 days; for reduction of new blood vessels: 6 days, 5 μg/ml, relative to PBS control
Experimental: The matrigel assay was also conducted in vivo in C57/BL6 mice. Matrigel was thawed overnight at 4° C. It was then mixed with 20 U/ml of heparin (Pierce Chemical Co., Rockford, Ill., USA), 150 ng/ml of bFGF (R&D Systems, Minneapolis, Minn., USA), and either 1 μg/ml of Arresten or 10 μg/ml of endostatin. The matrigel mixture was injected subcutaneously using a 21 g needle. Control groups received the same mixture, but with no angiogenic inhibitor. After 14 days, mice were sacrificed and the matrigel plugs removed. The matrigel plugs were fixed in 4% paraformaldehyde in PBS for 4 hours at room temperature, then switched to PBS for 24 hours. The plugs were embedded in paraffin, sectioned, and H&E stained. Sections were examined by light microscopy and the number of blood vessels from 10 high-power fields were counted and averaged.
To evaluate the in vivo effect of Tumstatin on the formation of new capillaries, a Matrigel plug assay was performed (Passaniti, A. et al., 1992, Lab. Invest. 67:519-29). Five- to six-week-old male C57/BL6 mice (Jackson Laboratories, Bar Harbor, Me., USA) were obtained. Matrigel (Collaborative Biomedical Prods.) was thawed overnight at 4° C. Before injection into C57/BL6 mice, it was mixed with 20 U/ml of heparin (Pierce Chemical Co., Rockford, Ill., USA), 150 ng/ml of bFGF (R&D Sys., Minneapolis, Minn., USA), and […] of Tumstatin. Control groups received no angiogenic inhibitor. The Matrigel mixture was injected sub-cutaneously using a 21 gauge needle. After 14 days, mice were sacrificed and the Matrigel plugs were removed. Matrigel plugs were fixed in 4% para-formaldehyde (in PBS) for 4 hours at room temperature, then switched to PBS for 24 hours. The plugs were embedded in paraffin, sectioned, and H & E stained. Sections were examined by light microscopy and the number of blood vessels from 10 high power fields were counted and averaged. All sections were coded and observed by a pathologist who was unaware of the study protocols.
Anti-angiogenic activity was measured by the in vivo Matrigel plug assay, in which 0.5 ml of Matrigel containing either 2 μg/ml or 20 μg/ml insoluble protein, 50 ng/ml VEGF, and 20 U/ml heparin was injected simultaneously into both flanks of C57/1BL6 mice. The plugs remained in the mice for 14 days, when the mice were sacrificed and the plugs resected and fixed. The plugs were embedded, sectioned and H&E stained. Samples were blinded and the blood vessels quantitated. No difference in the number of blood vessels was found between the two concentrations of protein, so all six counts were averaged and plotted.
To evaluate the in vivo effect of Tumstatin-44-131 of the formation of new capillaries, a Matrigel plug assay was performed. After 6 days of treatment, the number of new blood formed was reduced 91% upon treatment with 5 μg/ml E. Coli-expressed Tumstatin-44-131, relative to the PBS-treated control. Tum-1, which lacks the N-terminal 53 amino acids of full-length Tumstatin, was also tested, and reduced neovascularization by 95%. The average (over 3-4 Matrigel plugs) number of vessels was 0.47.+−.0.16 for Tum-1-treated plugs, 0.80.+−.0.16 for Tumstatin-44-131-treated plugs, and 8.81.+−.0.35 for PBS-treated controls.
To evaluate the in vivo effect of T3 on the formation of new capillaries, a matrigel plug assay was performed with Tumstatin-N53 (5 μg/ml), T1 and T3 peptide (10 μg/ml). The number of blood vessels from 4-7 high power fields were counted and averaged. The average number of vessels per high power field after treatment with Tumstatin-N53 was 0.47±0.16, 7.41±0.54 for T1 peptide, and 0.33±0.16 for T3 peptide. Control treatment produced 8.81±0.35 vessels per field, on average.

[2] = system: 786-O tumors; test: 786-O renal cell carcinoma xenograft; format: in vivo, athymic nude mice; settings: for inhibition of tumor growth compared to placebo: 10 mg/kg I.P. daily, 10 days
Experimental: In the first group of six mice, the tumors were allowed to grow to about 700 mm^3. In a second group of six mice, the tumors were allowed to group to 100 mm^3. Arresten in sterile PBS was injected I.P. daily for 10 days, at a concentration of 20 mg/kg for the mice with tumors of 700 mm^3, and 10 mg/kg for the mice with tumors of 100 mm^3. Control mice received either BSA or the PBS vehicle. […] Tumors in the Arresten-treated mice shrank from 700 to 500 mm^3, while tumors in BSA-treated and control mice grew to about 1200 mm^3 in 10 days. […] The tumors were allowed to grow to either about 100 mm^3 or about 700^3. Each group contained 6 mice. Canstatin in sterile PBS was injected I.P. daily at a concentration of 10 mg/kg for 10 days. The control group received the same volume of PBS. The results are shown in FIGS. 17C (100 mm^3 tumors) and […] (700 mm^3 tumors). In both groups, the Canstatin-treated (.box-solid.) tumors actually shrank relative to the controls (□). Tumstatin's effect on another established primary tumors in mice was also studied. […] Tumstatin was intraperitoneally injected daily (6 mg/kg) for 10 days in sterile PBS. The control group received BSA injections. […] E. Coli-produced Tumstatin at 6 mg/kg inhibited the tumor growth of 786-O human renal cell carcinoma as compared to the BSA control (FIG. 27B). […] Each point represents the mean i SE of 5-6 mice per group. Data points marker with an asterisk were significant, with P<0.05 by one tailed Student's t test. […] The tumors were allowed to grow to a size of about 100-150 mm^3. The mice were then divided into groups of 5, and were injected daily intraperitoneally with 20 mg/kg of the E. Coli-expressed truncated Tumstatin lacking the 53 N-terminal amino acids (Kalluri, R. et al., 1996, J. Biol. Chem. 271:9062-68) for 10 days. Control mice received PBS injection. The results are shown in FIG. 28, which is a graph showing increase in tumor volume (y-axis) against day of treatment (x-axis) for control mice (□) and mice treated with the Tumstatin mutant N53 (●). […] Each point represents the mean ±SE of 5-6 mice/group. Data points marked with an asterisk were significant, with P<0.05 by one-tailed Student's t test.

LQRFTTMPFLFCNVNDVCNF [T3] was tested, and the inhibition of neovascularization [1] was 96% and the “average number of vessels per high power field” value [1] was 0.33±0.16.

GLKGKRGDSGSPATWTTRGF [T1] was tested, and the inhibition of neovascularization [1] was “no significant reduction” and the “average number of vessels per high power field” value [1] was 7.41±0.54.

B1: Can-1: N-terminal 114 amino acids of full-length Canstatin (protein, listed as Homo sapiens)
chain: VSIGYLLVKHSQTDQEPMCPVGMNKLWSGYSLLYFEGQEKAHNQDLGLAGSCLARFSTMPFLYCNPGDVCYYASRNDKSYWLSTTAPLPMMPVAEDEIKPYISRCSVCEAPAIA
With B1 the “number of blood vessels per plug” value [1] was “significantly fewer blood vessels”.

B2: Canstatin: NC1 domain of the α2 chain of Type IV collagen (SEQ ID NO:6) (protein, listed as Homo sapiens)
chain: VSIGYLLVKHSQTDQEPMCPVGMNKLWSGYSLLYFEGQEKAHNQDLGLAGSCLARFSTMPFLYCNPGDVCYYASRNDKSYWLSTTAPLPMMPVAEDEIKPYISRCSVCEAPAIAIAVHSQDVSIPHCPAGWRSLWIGYSFLMHTAAGDEGGGQSLVSPGSCLEDFRATPFIECNGGRGTCHYYANKYSFWLTTIPEQSFQGSPSADTLKAGLIRTHISRCQVCMKNL
In the case of B2, the “inhibition of tumor growth compared to placebo” value ([2]; large (700 mm^3) tumors) is reported as 3 fold, the “inhibition of tumor growth compared to placebo” value ([2]; small (100 mm^3) tumors) is reported as 4 fold and the “number of blood vessels per plug” value [1] is reported as “significantly fewer blood vessels”.

B3: endostatin: tumor associated angiogenesis inhibitor used as comparator (protein, UniProt P39060 1572-1754, looked up)
Endostatin: HSHRDFQPVLHLVALNSPLSGGMRGIRGADFQCFQQARAVGLAGTFRAFLSSRLQDLYSIVRRADRAAVPIVNLKDELLFPSWEALFSGSEGPLKPGARIFSFDGKDVLRHPTWPQKSVWHGSDPNGRRLTESYCETWRTEAPSATGQASSLLGGRLLGQSAASCHHAYIVLCIENSFMTASK
modifications: Endostatin
For B3, the “reduction in the number of blood vessels” value ([1]; bFGF, 1 μg/ml Arresten, 10 μg/ml endostatin) was 50%.

B4: Tumstatin: NC1 domain of the α3 chain of type IV collagen, residues 1-244 (SEQ ID NO:10) (protein, listed as Homo sapiens)
chain: GLKGKRGDSGSPATWTTRGFVFTRHSQTTAIPSCPEGTVPLYSGFSFLFVQGNQRAHGQDLGTLGSCLQRFTTMPFLFCNVNDVCNFASRNDYSYWLSTPALMPMNMAPITGRALEPYISRCTVCEGPAIAIAVHSQTTDIPPCPHGWISLWKGFSFIMFTSAGSEGTGQALASPGSCLEEFRASPFLECHGRGTCNYYSNSYSFWLASLNPERMFRKPIPSTVKAGELEKIISRCQVCMKKRH
For B4, the “tumor volume on day 10” value ([2]; 6 mg/kg i.p. daily, start 600-700 mm^3, control 1096±179.7) was 619±120.7 mm^3, the “number of vessels per high power field” value ([1]; 1 mg/ml Tumstatin, control 7.50±2.17) was 2.25±1.32 and the “reduction in the number of blood vessels” value ([1]; bFGF and heparin, 1 mg/ml E. Coli-produced Tumstatin) was 67%.

B5: Tum-1: residues 54 to 244 of Tumstatin, lacking the N-terminal 53 amino acids (SEQ ID NO:22) (protein)
chain: QRAHGQDLGTLGSCLQRFTTMPFLFCNVNDVCNFASRNDYSYWLSTPALMPMNMAPITGRALEPYISRCTVCEGPAIAIAVHSQTTDIPPCPHGWISLWKGFSFIMFTSAGSEGTGQALASPGSCLEEFRASPFLECHGRGTCNYYSNSYSFWLASLNPERMFRKPIPSTVKAGELEKIISRCQVCMKKRH
modifications: Tum-1 (Tumstatin N-53) (amino acids 54-244 of SEQ ID NO10)
In the case of B5, the “tumor volume on day 10” value ([2]; start 100-150 mm^3, 6 mg/kg in the result sentence (20 mg/kg in the method), control 345.0±24.0) is reported as 110.0±29.0 mm^3, the “reduction of new blood vessels” value [1] is reported as 95% and the inhibition of neovascularization [1] is reported as 95%. The “average number of vessels per high power field” value [1] was 0.47±0.16.

B6: Tumstatin-44-131: residues 44 to 131 of full-length Tumstatin (SEQ ID NO:33) (protein)
chain: FSFLFVQGNQRAHGQDLGTLGSCLQRFTTMPFLFCNVNDVCNFASRNDYSYWLSTPALMPMNMAPITGRALEPYISRCTVCEGPAIAI
modifications: Tumstatin-45-132 (amino acids 45-132 of SEQ ID NO10)
B6 was tested, and the “reduction of new blood vessels” value [1] was 91%.
